Experimental findings from article PMC3926839, “Evaluation of Zinc (II) chelators for inhibiting p53-mediated apoptosis” are described below.

This data set deals with FLAG-p53 (UniProt P04637 1-393). The data set can be described thus: EMSA; BPA (Zn(II) chelator) preincubated; no inhibition; FLAG-p53 12.5 nM; 10 mM Tris-HCl pH 7.4, 2.5 mM DTT, 0.05% NP-40; 10 min preincubation with chelator at 37 °C, then 3 h with probe at 37 °C; electrophoresis at. The note with it: protein: recombinant; tags: FLAG; chain copies: 4; label: FITC; blunt (only the sense strand is printed; it is self-complementary).
Chain of FLAG-p53 (P04637 whole entry): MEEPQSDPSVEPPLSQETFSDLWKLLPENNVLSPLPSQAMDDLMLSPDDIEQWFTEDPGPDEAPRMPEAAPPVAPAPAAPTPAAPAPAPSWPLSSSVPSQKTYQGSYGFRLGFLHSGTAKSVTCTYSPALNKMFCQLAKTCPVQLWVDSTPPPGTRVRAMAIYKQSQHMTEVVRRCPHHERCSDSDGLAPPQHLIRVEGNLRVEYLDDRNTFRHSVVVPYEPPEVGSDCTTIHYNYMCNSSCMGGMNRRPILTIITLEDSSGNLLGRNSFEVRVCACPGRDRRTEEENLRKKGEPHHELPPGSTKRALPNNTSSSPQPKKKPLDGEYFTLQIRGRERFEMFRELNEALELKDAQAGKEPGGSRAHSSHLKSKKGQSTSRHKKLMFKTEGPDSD

B1: p53 consensus probe (dsDNA)
DNA 1: GGACATGCCCGGGCATGTCC
DNA 2: GGACATGCCCGGGCATGTCC
Take B1: the binding result is recorded as “binds”.
